Where no end group is shown, it is not given here. [ ]: non-standard residue; d: D form.
B1: RD2RD2 amidated (peptide)
peptide: [dP][dT][dL][dH][dT][dH][dN][dR][dR][dR][dR][dR][dP][dT][dL][dH][dT][dH][dN][dR][dR][dR][dR][dR]-NH2
modifications: N-terminus assumed
SMILES: CC(C)C[C@@H](NC(=O)[C@H](NC(=O)[C@H]1CCCN1C(=O)[C@@H](CCCNC(=N)N)NC(=O)[C@@H](CCCNC(=N)N)NC(=O)[C@@H](CCCNC(=N)N)NC(=O)[C@@H](CCCNC(=N)N)NC(=O)[C@@H](CCCNC(=N)N)NC(=O)[C@@H](CC(N)=O)NC(=O)[C@@H](Cc1c[nH]cn1)NC(=O)[C@H](NC(=O)[C@@H](Cc1c[nH]cn1)NC(=O)[C@@H](CC(C)C)NC(=O)[C@H](NC(=O)[C@H]1CCCN1)[C@H](C)O)[C@H](C)O)[C@H](C)O)C(=O)N[C@H](Cc1c[nH]cn1)C(=O)N[C@@H](C(=O)N[C@H](Cc1c[nH]cn1)C(=O)N[C@H](CC(N)=O)C(=O)N[C@H](CCCNC(=N)N)C(=O)N[C@H](CCCNC(=N)N)C(=O)N[C@H](CCCNC(=N)N)C(=O)N[C@H](CCCNC(=N)N)C(=O)N[C@H](CCCNC(=N)N)C(N)=O)[C@H](C)O
B2: D3D3 amidated (peptide)
peptide: [dR][dP][dR][dT][dR][dL][dH][dT][dH][dR][dN][dR][dR][dP][dR][dT][dR][dL][dH][dT][dH][dR][dN][dR]-NH2
modifications: N-terminus assumed
SMILES: CC(C)C[C@@H](NC(=O)[C@@H](CCCNC(=N)N)NC(=O)[C@H](NC(=O)[C@@H](CCCNC(=N)N)NC(=O)[C@H]1CCCN1C(=O)[C@H](N)CCCNC(=N)N)[C@H](C)O)C(=O)N[C@H](Cc1c[nH]cn1)C(=O)N[C@@H](C(=O)N[C@H](Cc1c[nH]cn1)C(=O)N[C@H](CCCNC(=N)N)C(=O)N[C@H](CC(N)=O)C(=O)N[C@H](CCCNC(=N)N)C(=O)N[C@H](CCCNC(=N)N)C(=O)N1CCC[C@@H]1C(=O)N[C@H](CCCNC(=N)N)C(=O)N[C@@H](C(=O)N[C@H](CCCNC(=N)N)C(=O)N[C@H](CC(C)C)C(=O)N[C@H](Cc1c[nH]cn1)C(=O)N[C@@H](C(=O)N[C@H](Cc1c[nH]cn1)C(=O)N[C@H](CCCNC(=N)N)C(=O)N[C@H](CC(N)=O)C(=O)N[C@H](CCCNC(=N)N)C(N)=O)[C@H](C)O)[C@H](C)O)[C@H](C)O
B3: D3RD2 amidated (peptide)
peptide: [dR][dP][dR][dT][dR][dL][dH][dT][dH][dR][dN][dR][dP][dT][dL][dH][dT][dH][dN][dR][dR][dR][dR][dR]-NH2
modifications: N-terminus assumed
SMILES: CC(C)C[C@@H](NC(=O)[C@@H](CCCNC(=N)N)NC(=O)[C@H](NC(=O)[C@@H](CCCNC(=N)N)NC(=O)[C@H]1CCCN1C(=O)[C@H](N)CCCNC(=N)N)[C@H](C)O)C(=O)N[C@H](Cc1c[nH]cn1)C(=O)N[C@@H](C(=O)N[C@H](Cc1c[nH]cn1)C(=O)N[C@H](CCCNC(=N)N)C(=O)N[C@H](CC(N)=O)C(=O)N[C@H](CCCNC(=N)N)C(=O)N1CCC[C@@H]1C(=O)N[C@@H](C(=O)N[C@H](CC(C)C)C(=O)N[C@H](Cc1c[nH]cn1)C(=O)N[C@@H](C(=O)N[C@H](Cc1c[nH]cn1)C(=O)N[C@H](CC(N)=O)C(=O)N[C@H](CCCNC(=N)N)C(=O)N[C@H](CCCNC(=N)N)C(=O)N[C@H](CCCNC(=N)N)C(=O)N[C@H](CCCNC(=N)N)C(=O)N[C@H](CCCNC(=N)N)C(N)=O)[C@H](C)O)[C@H](C)O)[C@H](C)O
B4: RD2 amidated (peptide)
peptide: [dP][dT][dL][dH][dT][dH][dN][dR][dR][dR][dR][dR]-NH2
modifications: N-terminus assumed
SMILES: CC(C)C[C@@H](NC(=O)[C@H](NC(=O)[C@H]1CCCN1)[C@H](C)O)C(=O)N[C@H](Cc1c[nH]cn1)C(=O)N[C@@H](C(=O)N[C@H](Cc1c[nH]cn1)C(=O)N[C@H](CC(N)=O)C(=O)N[C@H](CCCNC(=N)N)C(=O)N[C@H](CCCNC(=N)N)C(=O)N[C@H](CCCNC(=N)N)C(=O)N[C@H](CCCNC(=N)N)C(=O)N[C@H](CCCNC(=N)N)C(N)=O)[C@H](C)O
B5: D3 amidated (peptide)
peptide: [dR][dP][dR][dT][dR][dL][dH][dT][dH][dR][dN][dR]-NH2
modifications: N-terminus assumed
SMILES: CC(C)C[C@@H](NC(=O)[C@@H](CCCNC(=N)N)NC(=O)[C@H](NC(=O)[C@@H](CCCNC(=N)N)NC(=O)[C@H]1CCCN1C(=O)[C@H](N)CCCNC(=N)N)[C@H](C)O)C(=O)N[C@H](Cc1c[nH]cn1)C(=O)N[C@@H](C(=O)N[C@H](Cc1c[nH]cn1)C(=O)N[C@H](CCCNC(=N)N)C(=O)N[C@H](CC(N)=O)C(=O)N[C@H](CCCNC(=N)N)C(N)=O)[C@H](C)O
B6: RD2D3 amidated (peptide)
peptide: [dP][dT][dL][dH][dT][dH][dN][dR][dR][dR][dR][dR][dR][dP][dR][dT][dR][dL][dH][dT][dH][dR][dN][dR]-NH2
modifications: N-terminus assumed
SMILES: CC(C)C[C@@H](NC(=O)[C@@H](CCCNC(=N)N)NC(=O)[C@H](NC(=O)[C@@H](CCCNC(=N)N)NC(=O)[C@H]1CCCN1C(=O)[C@@H](CCCNC(=N)N)NC(=O)[C@@H](CCCNC(=N)N)NC(=O)[C@@H](CCCNC(=N)N)NC(=O)[C@@H](CCCNC(=N)N)NC(=O)[C@@H](CCCNC(=N)N)NC(=O)[C@@H](CCCNC(=N)N)NC(=O)[C@@H](CC(N)=O)NC(=O)[C@@H](Cc1c[nH]cn1)NC(=O)[C@H](NC(=O)[C@@H](Cc1c[nH]cn1)NC(=O)[C@@H](CC(C)C)NC(=O)[C@H](NC(=O)[C@H]1CCCN1)[C@H](C)O)[C@H](C)O)[C@H](C)O)C(=O)N[C@H](Cc1c[nH]cn1)C(=O)N[C@@H](C(=O)N[C@H](Cc1c[nH]cn1)C(=O)N[C@H](CCCNC(=N)N)C(=O)N[C@H](CC(N)=O)C(=O)N[C@H](CCCNC(=N)N)C(N)=O)[C@H](C)O

Biological target: A beta oligomers of the QIAD test (A beta aggregated under controlled conditions) (UniProt P05067 672-713, limits assumed)
Sequence (P05067 672-713 limits assumed): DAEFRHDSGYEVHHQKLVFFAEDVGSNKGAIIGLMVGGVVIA
Experiment: cell-based or functional assay

Binder | QIAD: reduction of oligomers in %
B1 | 97%
B2 | 98%
B3 | 88%
B4 | 78%
B5 | 56%
B6 | 100%

From patent US20160297852A1 (FORSCHUNGSZENTRUM JUELICH, published 2016)
